# Assay results taken from publication PMC9887757 (2023).
# B1: BKPyV VLP genotype Ia (VP1 virus-like particles) (complex)
# chain: MAPTKRKGECPGAAPKKPKEPVQVPKLLIKGGVEVLEVKTGVDAITEVECFLNPEMGDPDENLRGFSLKLSAENDFSSDSPERKMLPCYSTARIPLPNLNEDLTCGNLLMWEAVTVQTEVIGITSMLNLHAGSQKVHEHGGGKPIQGSNFHFFAVGGEPLEMQGVLMNYRSKYPDGTITPKNPTAQSQVMNTDHKAYLDKNNAYPVECWVPDPSRNENARYFGTFTGGENVPPVLHVTNTATTVLLDEQGVGPLCKADSLYVSAADICGLFTNSSGTQQWRGLARYFKIRLRKRSVKNPYPISFLLSDLINRRTQRVDGQPMYGMESQVEEVRVFDGTERLPGDPDMIRYIDKQGQLQTKML
# Target: 41F17
# Assay: SPR; avidity
binder,measurement,value
B1,Kd,0.34 nM
